The series in a line: label from the status in PepcDB records.
Regarding “MAYFHGTGSEPAWKQMELVALIGLAAVLLRGPIAAAWKTVASRSNERKRHQRDPAARVGKGAGSKINLAALQYANLKLALREHRCRRLPRLLVTGNDAAVSRLLPELEEAGWFDTCDALLLSSKTSNEGQPDTAWLKRLYKLRRRRPVDAVIVVTDGAADLPMPRRGTHPYSIRLARIIEILRYAAPVYVVDVAGMDPTVSSDAPIIVCALPNQADASAIEEALLLLRNQLARRGLDQLTQEDRYPYQARLSQRFDTRSKALAKWTAGLIAGQIAVRGIAFAPYPSGTSTKPEMPGSADLPHWRYLSEAARRQPGKRIGWHPMTVCVGFALVAVGLWFAGMLASGWFNSRDVYAAQQAVTEIGSARNPATRLHALLALQQQIERYEYRTQQHAPLLTRFGLNRDADVLAALWQPYVKASRELLVTPVQQNLEATLVDLGQLQTTTLDDKTSQWALSGRDDLKAYLMLAYPERTEADFLAGRLPHDWSTEARITPGEKQALAERLFKFYAQHLKANPDWKIEPRPELVAGARQTLLAVIGARSAQETLYRGILNGAGNKYPDLTLPSLTAGTDARGLLRSAAAVPGVFTRQAYEGYVADAIDAAATRRDVAADWVLTGSQVAAVTATKSADELRAALTEQYFAEYAAHWQDFMNSLQWESAATLPAAIDQLKLLADARQSPAIALMKSLAYQGGAGVQKTSLSDTLVNKAKDILGKKDDAPNSAKAAPAGPLDAAFGPVLRLAGQPGQAGQGGNNDLSLQRYLDRITALRLRLQQVSIGADADDQARQMAQAMFQGKSSDLADTQAYAQLVAASLGAEWAGMGETLFVRPVAQATQAIVLPAQASLNDVWQRFIMAEWNRIFAGRYPFANTTNDASLPELAQFLRPQGGTIQTFLATQLAGVLELQGDQWMPAAGARGITFDPEFLKTINILQRIGAHMLVQGDPQYRFELKPIATPGLTDTKLTIDGQKLHYYNQRETWNRMTWPASNLQDPGTLLQWQTEKAGTNKNYEYGGRFALLRMIGHGHIVPIDSATVQITWPAVPDTRGPLEESTDAQSGKAPYEIRFLMRSEAGQGVLELLPLRGLKLPQRVFLVGKGGAAVDVPSPAARNAKRGGV”, the protein production entry was “failed”.

On to “MCAEIPAMGPDLAIARAAAARWRKRAAEREQTRKTLDHQPAGHFTPVDSVDRLAKRAGRLQQWAAAIRALPPAAILGLPAAPPPTGGAADTREIDMVAPALSLRALAAERIIGETSDLLSVEFLEIGVAAARAVGLITTRGAPNGTGFLVAPDVVLTNNHVLPDVRTARASALEMDFETNRHGPRKEVQSFELDPDGFFLTDAPLDFTLVRVRPTSDGGQALSDYGFLPLIAAEGKIAVGEPLNIIQHPGGRVKQAALRNNRLLDLPPSNEADALNPDAVFHYETDTEKGSSGSPVFNDQWEVVALHHTGVPKTDASGAMIDADGRVVPDSQPERIVWIGNEGIRISRLYQYVFTFTFADPAMASVRDALIALWTDAGRPGWARTAAEAETIVHPPAALADPPPAAPAIIPLAEERGAAIAPDPADPAYARRPGFRSDFLGLPTPLPRLVDDSRGPLATFGEGVSELRYHHYSVLMNARRRLAYVAAVNIDHRAPFDVQRGTDRWFFDPRLPKRLQAGGDYYAANPLDRGHLVRRDDAAWGYTQAEAQLANDDTFHWTNCSPQHEVFNQSAKASGKGLLLWGNLENAVVDLAKATNGRLCVYNGPLFTEDDRPYRQDFFVPGAFWKLIALIDGQSRPRALAFRLSQAAQIADLPAEAFAPAELAAFTPVQIPVATLGALTGLDFGALAQWDPLAAGSDGVSKETLSPPRSIILTREADIVF”, for which the protein production entry is listed as “failed”.

With “MCAMSQEHQNPTPLPQVSDMAPVNPPKNQRYPRAVDLSLIECHCCGLLNQVDSDHSEQAHSRHCIRCHSPLHVRKPRSLDRTLALVIAASILYIPANVLPMTMTDSLLGRQQDTIMSGVIYFWQNSDYLVAVVIFMASIFIPMLKLIILCFLLIAVRMQESSKWHFLPEHCALLYRIVEFVGRWSMIDVFVVALLTALIQIQSLATILAGPGAVAFGAVVVLTMFASLSFDPRIIWDNYYKAQAKQHDPLQTIDNTSSISVEQ”, the protein production entry is “failed”.

“MCENEEYRERFPDKHFDLETVLQAKVRPICVVPERTFIGFFHREKSKEEEEKEDVSLDFLKGVMSFDSIWEEIMKQEPEESASEHVIYIVSWNDHYFVLLVNHDAYYIIDTLGERVYEGCNQAYVLKFDQDAEIKRLPSVIKDNKADMGSQKQGGKNKYEQPERSKESEEQGEEVVVCRGKESCREYIKSFLAAIPIQQVKADMKEGLVSSFHHRLQIELYYTKHLHHRQPNMFESSTTKVTVSEATVSMTVAWLLASQFSNSGGFGCEMAELLGIKV”: the protein production entry is recorded as “failed”.

Turning to “MCGAWFFGARVFEFFTSLFESMKVLKLLPNFLTILRIVLSLFLLFLLLNTRTYFSFLTPFQTNMISSLVFLFAALTDLLDGYIARSYKAKSRFGEIFDPLADKILILSAFLGLVYLDRVNAWIPFVILGREFFISGLRVLAANEKKDIPVNALGKYKTVSQVVAIGALLADVTYSYALVAIAVFLTLYSGIDYTIKYYKS”, the protein production result is reported as “failed”.

For “MCIAVIGGMDRLERHYRQEAARTGFELRVFSQSENNIATKLKRFDALVIFTNKVSHRVRNEAMSAAKLNGIPVFQYHSCGVCTLRDCLNCLVLPAGGGTKLEHHHHHH”, the protein production result is given as “failed”.

Consider “MCKLIKCELLKLKSMLGAILAFFFPLLLVSIGLLNIYTGSVKISGTSEMWNAIYVQSSSLYGGILFPVFLSALVSLQWRVEFKNNNINNILITDKSHKDIYLSKIFSTFVIAFINIILYIIIIFISVKVLLPKETVKAFIFYGPIIGLLFSLPLICIQHFLSMNFKNFALPLVIGIVLSLPNFVASCYSFSTFIPYSYICKGMFFNVKNSLNVECPIYIFILTALIFVASVSLGTKVFKNKEFR”, for which the protein production entry is “failed”.

“MCLKNNAKDEIMDSTKAWYQSRTIWGALIAVFAPLFSIAGFDLPAGLHGELAEGLVTVAGGIGGLIALYGRLSATRSIR”: the protein production result is on record as “failed”.

With “MCNGKVVNKGDDCQSLTFRRRSGWAMIDRSAVMEKTMDSRIQDVLDIYHAMIETEHNSPRELPPGGRDGGQDQRLRAVGQATGQFINILAKSLKSPTILELGTSFGYSGIWLAEAARASGGRLITMEMHDYKSAYARDMAVKAGLAEHVEFKVGDAVQMIGALSSGIDFVLVDLWKDLYVPCLEAFYPKLNPGAIIVADNMLRPGGDDLKRYSDAVRAKPWISSVLLPVGSGLEVSRFD”, the protein production entry is reported as “failed”.

In the case of “MCQESVIVMQATQPLQTVSQAVPKEFLQADGGFNPNVAMFGIAILLMLANVFGYWQWGLPHWLCFSCSVLALHLSGTVIHDASHNAAHRNTIINAVLGHGSALMLGFAFPVFTRVHLQHHANVNDPENDPDHFVSTGGPLFLIAARFFYHEIFFFKRRLWRKYELLEWFLSRLVLFTIVFLGIHYGFIGFVMNYWFVPALIVGIALGLFFDYLPHRPFQERNRWKNARVYPSPILNWLIFGQNYHLIHHLWPSIPWYQYQNTYHITKPILDEKGCDQSLGLLEGKNFWSFLYDVFLGIRFHGHNNSQSSDKP”, the protein production result was “failed”.

Take “MCRALLSITMQIPLVKWTEGLNIKTIVSISYVCYAVAAIGFAFSSSIFWLLSTAVLFTAAESMLLNHMQTFVSRLAPNHIRGGYFAFFGPHWDISRTIGPFLGGMIFIKFGGAALFLAIAGIMALGGIAQYRAVSRLKKLVLYSTWY”: the protein production entry was “failed”.

As for “MCRTRPSCGRMEEKRPVDAAGAVALIGIAALLAFNQVVIKVTGGGFGPLFQAGLRSALGLVFVLIWMRLLRKPIVFPRAALMGALITGLLFTVEFMALFAALDLTSVSRVSILFYSMPVWLALGGHFLLPGERLSGMRVLGLMLAMGGVVLALLERDAAHVSLLGDALAVFAAMCWAAIALGVRLTPLGRVPAEMQLMSQLVISAPLLLVLAPLTGETLRTPGLLHWAGLLFQAVGVVGLGFLIWFRLLAVYRANGVASFSFLSPVLAVILGWLLLGEQVGPLVWLALGLVAAGIVLINRR”, the protein production result was “failed”.

For the sequence “MCRYCLIVAARVGAVDDARFDMTAPDLIPIETLFGMPEFSRAQISPDGRLVAYLAPWRGRLNIWVRPVGQGTARRLTGDDTRNIDGFSWTRDTRYLLFIQDTQGDENWHLHRVEVDGAEAVGGKARTVDLTPYSGVRVMGLELSAAFPSKAFVQMNLRTPDLIDLYEVDIESAETRVAALNPGRFVRWIVTPNGPMHAFIINDVGDHELARYENGVFTTLAKLSGRDQPIGPMPLMVAADGESVLVGCNAGSDHTYLAAIDLATGKCRVIDSQPDCSLDTPRPEADPRFPSSLITNPVTGELLAVRYLGKRQQIRPLNLRFAAVLNSLQRLSDGEIGYISCDAGGRQWVAEFWDDRHPGTTWFYEHESGEAHVLGERFSALSAERLVSVRPIDVISRDGLTLPCHVTLPVGFDAKDEPRALPTVLLVHGGPWYRDACVYDPEVQFLANRGYAVLQVNFRGSTGYGKAFMQAAIGEFSGRMHDDLIDGLDWLIGQGIADPARVAIYGCSYGGYAALVGASFTPERFTATISYSGISDLRMLVNGVVPFVQPTLINTYLSYMGDPDIETQNRDMLARSPVSRLDCISKPLLVVHGANDVRVAKAQADMVVERVRANGVEVDYLLNEREGHWFINEDSNIELYRKIERFLARHLRGE”, the protein production entry is reported as “failed”.

Regarding “MCSALVVAAPHSGSGKTTVTAAIARYHRVQGRKVTVFKVGPDFIDPMILRQASGELVYQLDLWLVGEQGCRALLHRAAMDSDLILIEGVMGLFDGTPSSADLAKYFNIPVLGVIDAKAMAQTFAAVTFGLAKFCEDLPFSGVIANRVNTERHAELLSVSLPKAFRFYGRIPKDDTITLPERHLGLVQAQELSDIDVQLDKAASHIANTGLTELPSQVEFFAQEDDNQENIIEGALAGTRIIIIRDSAFSFIYAANIAFLTQTGAELIYCSAMADVHLPDGDILYIPGGYPELYAEQLMNNVTFLSDIRAFSASNKPIVAECGGMLYLLEQLTDMEGQQFSMLGLMPGKATMQKKLAAIGSQWVPLPSFADAAEDSADNIMRGHSFHYSCAEIELEPSSQTTHHPSERAGEYVYQHNNILASYMHWYFPSNPSLTLRIFDKARYLLEHHHHHH”, the protein production result is listed as “not failed”.

Regarding “MCSLEKRDRLFILKLTGDGEHRLNPTLLDSLRSTINQIRSDPSFSQSVLITTSDGKFFSNGYDLALAESNPSLSVVMDAKLRSLVADLISLPMPTIAAVTGHASAAGCILAMSHDYVLMRRDRGFLYMSELDIELIVPAWFMAVIRGKIGSPAARRDVMLTAAKVTADVGVKMGIVDSAYGSAAETVEAAIKLGEEIVQRGGDGHVYGKMRESLLREVLIHTIGEYESGSSVVRSTGSKL”, the protein production result is given as “failed”.

Regarding “MCVRHDAGHGCLRAREGRRRPSMAPPCRKKINKPVLVRVDEFCSAAVQAGNPIVPSTLETTHWATRRRPKEAGMASKMFKTVGRVAAGVAALSIAAAATTASADSRHHRHKRDKGGDVAAAAITAGVIGLVIGAAIADDGHRDDRYYDRRYAPPPPPPPTRYGHGYGYGYDYDYAPRPYYGDRECWTTREYNRRSGSYYERTVCR”, the protein production entry is listed as “failed”.

For “MDAEAAKMIGAGLAAIGMIGSGIGVGNIWANLIATVGRNPAAKSTVELYGWIGFAVTEAIALFALVVALILLFAA”, the protein production entry is given as “failed”.

Turning to “MDAKHIEKVFVKKVPAKSNKAQVKYPFDENSVNVLIIGLDKASNRSTYDLHRTDTILFLNINFKDKKVKGISIPRDTLTEIYKVGKWDKINSAFGYGGGEKEEGFFYTMETVSKLLGGMPIEYYVGFDLDAVRKVVNILGGVYVNVEVPVKVKTKWVNIDLKPGYQKLNGIETLYYALWRKTPGGDIDRIKRDKELILSVFEQLKESNKIITLPEIYWKIRRHFYTNLSLQQITSLAYFAQNMKKEDIVFESIPGDYFNYMGVSYWKPDYEGIKKLVKDLFGYDIEIDLKMPEKYKYARRIIVKAKKENNISYLEHHHHHH”, the protein production result is “not failed”.

With “MDAKQLSKRLATVGAFVQPGARVADIGSDHAYLPANLALNHQISYGVAGEVVRGPFENARHEIQKLGLTDRLVARLADGLAAIEPADRIDTVTIAGMGGPLIRHILEQGPTQLAGVQRLVLEPNVGEATVREWLAANQFQIVAERILAEDGHTYEILCADRVDHQVTYTTAEQMFGPFLLAEKSPVFIAKWQRELQRVNAAVAQMQRAKVIPEEQLALAHAKIKLIEGVLTDASK”, the protein production result is “failed”.

Source of the values: a protein production outcome set (Wang et al. 2014).
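Also: failed if final PepcDB status was selected cloned or expressed and not failed if soluble or beyond.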
